Assays:
Assay in all cases: cell-based or functional assay
Gαi1 A326S (human) = target: Gαi1 A326S (human)
Gαi1 R178C (human) = target: Gαi1 R178C (human)
Gαi1 R178C/A326S (human) = target: Gαi1 R178C/A326S (human)
Gαi1 R178M (human) = target: Gαi1 R178M (human)
Gαi1 R178M/A326S (human) = target: Gαi1 R178M/A326S (human)
[1] = target: Gαi1 wild type (full length human, His-tagged) (human)
Sequence of Gαi1 wild type (full length human, His-tagged) (human) (B2RSH2 2-354): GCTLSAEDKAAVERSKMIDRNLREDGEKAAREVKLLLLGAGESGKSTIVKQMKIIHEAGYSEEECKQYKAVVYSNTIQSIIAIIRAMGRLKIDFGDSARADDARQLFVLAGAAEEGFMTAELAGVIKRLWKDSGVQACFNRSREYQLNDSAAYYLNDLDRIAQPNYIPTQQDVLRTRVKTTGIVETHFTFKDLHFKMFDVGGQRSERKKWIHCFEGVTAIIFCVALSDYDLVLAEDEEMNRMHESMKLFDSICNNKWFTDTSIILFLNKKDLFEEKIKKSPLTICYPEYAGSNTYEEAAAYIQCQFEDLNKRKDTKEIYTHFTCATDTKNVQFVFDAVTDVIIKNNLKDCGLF

Sequence of human His-tagged RGS4 (23-298) (P49798 other isoform, or with tags, fused parts or gaps limits assumed): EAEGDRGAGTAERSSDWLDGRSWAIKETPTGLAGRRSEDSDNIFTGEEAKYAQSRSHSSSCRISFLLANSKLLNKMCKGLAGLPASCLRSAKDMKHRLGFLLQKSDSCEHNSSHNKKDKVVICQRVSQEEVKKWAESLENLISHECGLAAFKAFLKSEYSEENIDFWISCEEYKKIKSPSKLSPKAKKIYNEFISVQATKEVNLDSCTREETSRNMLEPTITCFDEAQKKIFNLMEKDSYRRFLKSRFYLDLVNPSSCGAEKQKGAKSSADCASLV
Sequence of Gαi1 R178M/A326S (human) (B2RSH2 2-354 R178M/A326S): as the sequence (B2RSH2 2-354) above, with R177M, A325S counted along it
Sequence of Gαi1 R178C/A326S (human) (B2RSH2 2-354 R178C/A326S): as the sequence (B2RSH2 2-354) above, with R177C, A325S counted along it
Sequence of Gαi1 A326S (human) (B2RSH2 2-354 A326S): as the sequence (B2RSH2 2-354) above, with A325S counted along it
Sequence of Gαi1 R178C (human) (B2RSH2 2-354 R178C): as the sequence (B2RSH2 2-354) above, with R177C counted along it
Sequence of Gαi1 R178M (human) (B2RSH2 2-354 R178M): as the sequence (B2RSH2 2-354) above, with R177M counted along it

GAP Factor (Gαi1 A326S (human)): 1.1 fold | GTPase rate +RGS4 (steady state, GDP immunodetection) (Gαi1 A326S (human)): 0.11 min⁻¹ | GAP Factor (Gαi1 R178C (human)): 0.92 fold | GTPase rate +RGS4 (steady state, GDP immunodetection) (Gαi1 R178C (human)): 0.00035 min⁻¹ | GAP Factor (Gαi1 R178C/A326S (human)): 3.63 fold | GTPase rate +RGS4 (steady state, GDP immunodetection) (Gαi1 R178C/A326S (human)): 0.069 min⁻¹ | GAP Factor (Gαi1 R178M (human)): 1.19 fold | GTPase rate +RGS4 (steady state, GDP immunodetection) (Gαi1 R178M (human)): 0.007 min⁻¹ | GAP Factor (Gαi1 R178M/A326S (human)): 6.47 fold | GTPase rate +RGS4 (steady state, GDP immunodetection) (Gαi1 R178M/A326S (human)): 0.097 min⁻¹ | maximum polarization shift resulting from RGS stimulation (Gαi1 R178M/A326S (human)): 73 mP | stimulation of GTPase activity (Gαi1 R178M/A326S (human)): 6.6 fold | GAP Factor [1]: 0.81 fold | GTPase rate +RGS4 (steady state, GDP immunodetection) [1]: 0.013 min⁻¹
Substance: human His-tagged RGS4 (23-298) (from UniProt P49798 23-298)
